B1: Pistol ribozyme (parent)
chain: GGGUCGUUGUUCCAUAAUCGCGUGGAUAUGGCACGCAAGUUUCUACCGGGCACCGUAAAUGUCCGACUGGAGCCGUUCGGGCGGCUAUAAACAGACCUCAGGCCCGAAGCGUGGCGGCACCUGCCGCCGGUGGUAAAAAAGAUCGGAAGAGCACACGUCU

In the data set the parent is B1. Briefly: aptazyme ON/OFF ratio, guanine; higher = stronger switching; co-transcriptional cleavage with and without guanine.
For U7A U8C G9U C12A C13U, the “aptazyme ON/OFF ratio” value amounted to 1.27. In the case of U7C U8C G9A U10A U11A C12U C13G it was 1.13; in that of U7A U8G U10A C13G, 1.26. In the case of U8G G9U U10A U11G C12G C13G it was 1.15; in that of U7A U8C G9U U10C U11C C12U, 1.06; in that of U7A U8C G9U U10A U11A, 1.37. As for U7G U8C G9U U10G U11C C12U, the figure is 1.26; as for U7G U8C G9A U10A U11G C13A, 1.13.

Regarding U7G U8A U10A C13U, the “aptazyme ON/OFF ratio” value came to 1.25.

Take U7G U8A U10A U11A C12G: the “aptazyme ON/OFF ratio” value was 1.14. In the case of U8C G9C U11C C12G C13A it was 1.2. On to U8A G9A U10C C12A C13A, for which the “aptazyme ON/OFF ratio” value was 1.19. Regarding U7C G9C U10G C12G C13G, the “aptazyme ON/OFF ratio” value was determined as 1.07. In the case of U7A U8C G9U U10G U11C C12A C13G it was 1.15; in that of U7G U8C G9U U10C U11A C12G, 1.98.

U7A U8A U11A C13A: the “aptazyme ON/OFF ratio” value stood at 1.11.

In the case of U8C G9A U10G U11A C12U C13U, the “aptazyme ON/OFF ratio” value stood at 1.17. In the case of U7G U8A G9U U10G U11G C12U C13A, the “aptazyme ON/OFF ratio” value worked out at 1.04. Consider U7C U8C G9A U10C U11A C12U, for which the “aptazyme ON/OFF ratio” value is 1.22. As for U8G U11G C12G, the figure is 1.18; as for U8G U11G C12A, 1.44. With U7A U8G G9A U11C C13U, the “aptazyme ON/OFF ratio” value was 1.2.

On to G9A U10A U11G C12A C13G, for which the “aptazyme ON/OFF ratio” value was found to be 1.28.

As for U8C G9C U10G U11C C13U, the “aptazyme ON/OFF ratio” value came to 1.2. With U7A U8C G9A U10A U11G C12A C13U, the “aptazyme ON/OFF ratio” value is 1.16.

Regarding U7G G9A U10C C12G C13A, the “aptazyme ON/OFF ratio” value was 1.09.

For U7C U8G G9C U10G U11A C12G C13U, the “aptazyme ON/OFF ratio” value came out at 1.24. Take U7G U8G G9C U10A U11C C12A C13A: the “aptazyme ON/OFF ratio” value was found to be 1.07. As to U7G G9U U10A U11C C12G C13A, the “aptazyme ON/OFF ratio” value is 1.22. As for U7C U10C U11G C13U, the figure is 1.74; as for U7C U8G G9A U11A C13U, 1.19. Take U7A U8G G9A U10A U11C C12U C13A: the “aptazyme ON/OFF ratio” value amounted to 1.15.

In the case of U8G G9C U10A, the “aptazyme ON/OFF ratio” value came out at 1.13. With U7C U10G U11A C12A C13G, the “aptazyme ON/OFF ratio” value turned out to be 1.17. For U7C U8C G9C U10C U11A C12U C13U, the “aptazyme ON/OFF ratio” value worked out at 1.1.

Turning to U7C G9A U10A C12G, the “aptazyme ON/OFF ratio” value stood at 1.18. As for U7G U8A G9U U11A C12G C13G, the figure is 1.06; as for U7G G9A U10G U11A C12G C13U, 1.05; as for U8G G9A U10G U11C C13U, 1.05. In the case of U7C U8C G9C U10A C12A it was 1.11.

Regarding U8G U10G C12G C13U, the “aptazyme ON/OFF ratio” value turned out to be 1.35. As for U7A G9U U11A C12G C13G, the figure is 1.12. For the variant U7C U8G G9C U10C U11A, the “aptazyme ON/OFF ratio” value turned out to be 0.99. As for U7C U8A U10G U11G C13A, the figure is 1.23.

Take U7C G9U U10G U11A C13A: the “aptazyme ON/OFF ratio” value amounted to 1.09.

In the case of U7A U8G U11G C12G C13A, the “aptazyme ON/OFF ratio” value came out at 1.15. Regarding U7C U8G U11G C12G, the “aptazyme ON/OFF ratio” value turned out to be 1.1.

U7C U8C U10C U11C C13U: the “aptazyme ON/OFF ratio” value was found to be 1.38. Turning to U7G U8G G9C U11A C12A C13G, the “aptazyme ON/OFF ratio” value was determined as 1.05. In the case of U8A G9U U11C C12A C13G it was 1.07; in that of U8G U10C U11G C12A, 1.35; in that of U8A G9U U10A U11A C12G C13G, 1.32. For the variant U8A G9C U10A U11A C12A, the “aptazyme ON/OFF ratio” value amounted to 1.25. Consider U7A U8A U10G C12U C13A, for which the “aptazyme ON/OFF ratio” value came out at 1.51.

Turning to U7G U11C C12A, the “aptazyme ON/OFF ratio” value is 1.21. In the case of U7A U8C U10C U11C C12U it was 1.04.

Consider U8C G9C U11A C13A, for which the “aptazyme ON/OFF ratio” value is 1.04. Regarding U8G G9U U10C U11A C12G C13G, the “aptazyme ON/OFF ratio” value was determined as 1.14. As for U7A U8C G9C U10G C12G C13A, the “aptazyme ON/OFF ratio” value was found to be 1.05. As for U7G G9A U10G C12A, the figure is 1.09; as for U7A G9U U11C C12U C13G, 1.1.

As to U7A U8A U10A C12U C13G, the “aptazyme ON/OFF ratio” value worked out at 1.1.

Consider U8G G9C U10G U11C, for which the “aptazyme ON/OFF ratio” value stood at 1.03. As for U7A U8A G9A C13G, the figure is 1.11; as for U7G U8A U10A U11C C12A C13G, 1.25. Consider U7C U8C U10G U11G C12U, for which the “aptazyme ON/OFF ratio” value stood at 1.22. With U7C U8G G9U U10A C12U C13A, the “aptazyme ON/OFF ratio” value is 1.2. Consider U7G U11G C12G C13G, for which the “aptazyme ON/OFF ratio” value was found to be 1.14. For the variant U10A U11A C12A, the “aptazyme ON/OFF ratio” value came to 1.18. In the case of U7A U8G G9C U10A U11C it was 1.04; in that of U8C G9A U10C, 3.49; in that of U7C U8A G9C C13U, 1.05. U7A U8G G9U U10C U11A C12U: the “aptazyme ON/OFF ratio” value was determined as 1.72. As for U7C U8C G9C U10A U11C C12U, the figure is 1.17; as for U7G U8G U11A C13U, 1.24. In the case of U7A U8A G9U U10C U11G C12A C13A, the “aptazyme ON/OFF ratio” value worked out at 1.14.

U8A U10A U11G: the “aptazyme ON/OFF ratio” value came out at 1.17. Consider U8G G9C U10C U11C C12U C13G, for which the “aptazyme ON/OFF ratio” value is 1.04. In the case of U8C G9U U10G U11C C12G C13A it was 1.22. As to U7C U8G G9U U11G C12G C13G, the “aptazyme ON/OFF ratio” value came to 1.18. As for U8C U10C U11G C12G, the figure is 1.25; as for U7G G9A, 4.35; as for U7C G9C U10A U11G C13A, 1.09. On to U7G U8A U10A, for which the “aptazyme ON/OFF ratio” value is 1.35.

(Values after the RNAGym collection of RNA variant scans (doi:10.1021/acssynbio.7b00057).)
